Test results published in publication PMC2173498.

Legend:
Assay in all cases: SEC
M9-βgal = M9-βgal (UniProt P09651)
IBB-nucleoplasmin = IBB-nucleoplasmin (UniProt P52292)
IBB-βgal = IBB-βgal (UniProt P52292)
Thyroglobulin-NLS = biological target: Thyroglobulin-NLS

WT importin β, sequence (Q14974 whole entry): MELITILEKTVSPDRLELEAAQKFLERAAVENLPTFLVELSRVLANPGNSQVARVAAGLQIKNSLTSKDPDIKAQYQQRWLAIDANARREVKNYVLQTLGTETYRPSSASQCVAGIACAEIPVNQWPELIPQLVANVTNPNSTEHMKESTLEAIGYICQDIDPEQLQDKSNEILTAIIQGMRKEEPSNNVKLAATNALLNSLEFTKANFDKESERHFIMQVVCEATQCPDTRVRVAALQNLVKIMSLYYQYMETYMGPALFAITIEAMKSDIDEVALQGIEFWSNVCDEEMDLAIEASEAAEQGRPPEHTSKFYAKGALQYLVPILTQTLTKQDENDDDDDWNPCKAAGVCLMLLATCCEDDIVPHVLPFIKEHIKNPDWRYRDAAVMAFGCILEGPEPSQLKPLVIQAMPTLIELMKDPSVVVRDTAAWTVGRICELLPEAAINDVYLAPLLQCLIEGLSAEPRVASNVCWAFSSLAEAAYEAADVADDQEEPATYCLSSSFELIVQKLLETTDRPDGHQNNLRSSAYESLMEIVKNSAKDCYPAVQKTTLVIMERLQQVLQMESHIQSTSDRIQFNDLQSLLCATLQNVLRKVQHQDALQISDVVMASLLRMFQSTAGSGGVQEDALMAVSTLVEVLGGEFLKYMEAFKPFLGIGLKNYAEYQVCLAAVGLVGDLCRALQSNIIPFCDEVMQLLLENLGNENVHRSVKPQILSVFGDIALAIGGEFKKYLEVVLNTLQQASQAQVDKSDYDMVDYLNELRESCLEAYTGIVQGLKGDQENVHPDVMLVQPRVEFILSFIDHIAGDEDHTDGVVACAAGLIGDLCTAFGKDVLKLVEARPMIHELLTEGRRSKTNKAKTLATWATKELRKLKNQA
WT transportin, sequence (Q92973 whole entry): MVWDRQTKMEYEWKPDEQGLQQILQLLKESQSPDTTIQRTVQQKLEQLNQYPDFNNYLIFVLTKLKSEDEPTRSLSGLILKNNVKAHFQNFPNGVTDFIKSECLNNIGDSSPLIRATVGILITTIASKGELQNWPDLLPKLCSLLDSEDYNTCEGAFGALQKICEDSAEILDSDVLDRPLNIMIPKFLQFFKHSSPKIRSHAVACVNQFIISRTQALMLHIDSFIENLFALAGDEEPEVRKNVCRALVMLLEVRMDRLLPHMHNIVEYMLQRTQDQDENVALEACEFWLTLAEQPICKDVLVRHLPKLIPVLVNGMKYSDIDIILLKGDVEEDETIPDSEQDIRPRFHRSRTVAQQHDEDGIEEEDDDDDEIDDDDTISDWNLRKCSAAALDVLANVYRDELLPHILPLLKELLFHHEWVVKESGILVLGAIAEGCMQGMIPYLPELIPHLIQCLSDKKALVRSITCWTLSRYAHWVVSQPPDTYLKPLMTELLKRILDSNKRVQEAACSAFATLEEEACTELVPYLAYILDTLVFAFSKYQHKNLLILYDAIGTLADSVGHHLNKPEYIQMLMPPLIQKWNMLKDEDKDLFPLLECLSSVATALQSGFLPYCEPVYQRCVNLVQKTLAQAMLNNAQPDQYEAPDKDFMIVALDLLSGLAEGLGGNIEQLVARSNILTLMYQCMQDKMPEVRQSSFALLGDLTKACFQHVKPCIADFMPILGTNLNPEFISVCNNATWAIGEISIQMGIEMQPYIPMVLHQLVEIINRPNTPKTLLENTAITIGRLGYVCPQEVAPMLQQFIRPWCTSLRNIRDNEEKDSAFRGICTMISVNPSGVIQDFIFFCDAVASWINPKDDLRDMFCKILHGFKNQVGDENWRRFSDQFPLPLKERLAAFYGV

WT transportin (from UniProt Q92973 1-898) (natural protein)
stoichiometry N (receptors per cargo) (M9-βgal): 4

WT importin β (from UniProt Q14974 1-876) (natural protein)
stoichiometry N (receptors per cargo) (IBB-nucleoplasmin): 5
stoichiometry N (receptors per cargo) (IBB-βgal): 4

IBB-nucleoplasmin (from UniProt P52292 1-65; P05221 1-149)
stoichiometry N (IBB-nucleoplasmin): 10

M9-βgal (from UniProt P09651-2 255-320)
stoichiometry N (M9-βgal): 4

Thyroglobulin-NLS
stoichiometry N (Thyroglobulin-NLS): 2
